Measured values from paper PMC7794244, “Development of a structural epitope mimic: an idiotypic approach to HCV vaccine design” (NPJ Vaccines, 2021).

Legend:
MAb ALP98 = assay: ELISA; conditions: parent: est. 100; read off a plot
[1] = molecular target: broadly neutralizing anti-E2 murine monoclonal antibody AP33 (IgG); assay: competition ELISA; conditions: peptide 10 µg/ml (highest concentration); binding to E2661 read; parent: est. 5; read off a plot
[2] = molecular target: AP33 light chain mutant D94 (human-mouse chimeric AP33, residue changed to alanine) (mouse | human); assay: ELISA
[3] = molecular target: AP33 heavy chain mutant Y53 (human-mouse chimeric AP33, residue changed to alanine) (mouse | human); assay: ELISA
[4] = molecular target: AP33 light chain mutant N30 (human-mouse chimeric AP33, residue changed to alanine) (mouse | human); assay: ELISA
[5] = molecular target: AP33 light chain mutant N92 (human-mouse chimeric AP33, residue changed to alanine) (mouse | human); assay: ELISA
[6] = molecular target: AP33 heavy chain mutant I95 (human-mouse chimeric AP33, residue changed to alanine) (mouse | human); assay: ELISA
[7] = molecular target: AP33 light chain mutant V93 (human-mouse chimeric AP33, residue changed to alanine) (mouse | human); assay: ELISA
[8] = molecular target: AP33 light chain mutant Y28 (human-mouse chimeric AP33, residue changed to alanine) (mouse | human); assay: ELISA
[9] = molecular target: AP33 heavy chain mutant T97 (human-mouse chimeric AP33, residue changed to alanine) (mouse | human); assay: ELISA
[10] = molecular target: soluble HCV E2 that lacks the transmembrane domain (E2_(661)), monomeric (Hepatitis C virus genotype 1a strain …, UniProt P27958); assay: SPR; conditions: both partners purified

E2 WT I414A
percent of parent (MAb ALP98): 96%

E2 WT S424A
percent of parent (MAb ALP98): 96%

E2 412-423 WT peptide W420R
other: E2 Binding (%) remaining after peptide competition [1]: 86%

E2 (as tested on wild type and mutant AP33 in Table 1) (from UniProt P27958 384-746) (natural protein)
Relative strength of binding (%) (% of binding to WT AP33) [2]: 74
Relative strength of binding (%) (% of binding to WT AP33) [3]: 100
Relative strength of binding (%) (% of binding to WT AP33) [4]: 89
Relative strength of binding (%) (% of binding to WT AP33) [5]: 60
Relative strength of binding (%) (% of binding to WT AP33) [6]: 10
Relative strength of binding (%) (% of binding to WT AP33) [7]: 79
Relative strength of binding (%) (% of binding to WT AP33) [8]: 112
Relative strength of binding (%) (% of binding to WT AP33) [9]: 101

B1: broadly neutralizing anti-E2 murine monoclonal antibody AP33 (IgG) (antibody, V domains shown)
VH: EVQLQESGPSLVKPSQTLSLTCSVTGDSITSGYWNWIRKFPGNKLEYMGYISYSGSTYYNLSLRSRISITRDTSKNQYYLQLNSVTTEDTATYYCALITTTTYAMDYWGQGTSVTVSS
VL: NIVLTQSPVSLAVSLGQRATISCRASESVDGYGNSFLHWFQQKPGQPPKLLIYLASNLNSGVPARFSGSGSRTDFTLTIDPVEADDAATYYCQQNNVDPWTFGGGTKLEIK
Kd [10]: 3.4 nM
koff [10]: 0.000542 s⁻¹
kon [10]: 160000 M⁻¹ s⁻¹
